Test results from patent publication US20190016799A1 (HANGZHOU SUMGEN BIOTECHNOLOGY, published 2019).
Read-outs that look alike come from different tables or passages of the source.

How the values were obtained:
[1] = target: T1, hPD1-Fc (fusion protein of human PD-1 protein extracellular segment-human IgG1 Fc fragment) (human, UniProt Q15116 25-170); assay: ELISA, plate coated with hPD1-Fc 1 ug/ml, detection with GAH-Fab-HRP, OD450
T1 construct: extracellular domain; Expressed in CHO-K1 cells; also called hPD1-FC-Biotin (biotin-labeled form); not shown: human IgG1 Fc fragment
T1 sequence (Q15116 25-170): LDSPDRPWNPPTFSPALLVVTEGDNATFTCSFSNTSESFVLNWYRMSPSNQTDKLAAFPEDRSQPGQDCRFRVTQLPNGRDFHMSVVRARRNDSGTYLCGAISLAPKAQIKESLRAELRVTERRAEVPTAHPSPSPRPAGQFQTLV

[2] = target: T1, hPD1-Fc (fusion protein of human PD-1 …); assay: as above; remark: listed apart in the source
monkey PD1 = target: T2, monkey PD1 (monkey); assay: ELISA, plate coated with monkey PD1 1 ug/ml, detection with GAH-Fab-HRP, OD450
T2 construct: Bought protein; also called monkey PD1 protein; monkey PD1 antigen

[3] = target: T1, hPD1-Fc (fusion protein of human PD-1 …); assay: SPR (BIACORE), antibody captured by anti-human IgG-Fab, hPD1-FC as analyte at 3.125-100 nM
Procedure: (§1) The antibody affinity was analyzed using BIACORE Biomacromolecular Interaction Device (GE).

[4] = target: T1, hPD1-Fc (fusion protein of human PD-1 …); assay: blocking ELISA: hPDL1 coated at 1 ug/mL, hPD1-FC-Biotin 5 ug/mL, antibody titrated from 500 ug/mL
Procedure: (§2) The plate was washed 3 times with a washing solution repeatedly, added with HRP-labeled avidin, and placed in the dark at room temperature (20±5° C.) for 45 minutes. The plate was washed 5 times with a washing solution repeatedly, and patted on a drying paper to dry out the residual droplets as possible; added with 100 μl of TMB to each well, and placed in the dark for 3 min at room temperature (20±5° C.); 100 μl of 2N H₂SO₄ stop solution was added to each well to stop the substrate reaction, and the microplate reader was read at 450 nm for the OD value.

BTLA = target: T3, BTLA (UniProt Q7Z6A9 31-157, limits assumed); assay: ELISA, plate coated with BTLA 1 ug/ml, detection with GAH-Fab-HRP, OD450; antibody concentration not shown on the sheet
T3 construct: Bought protein

CD28 = target: T4, CD28 (UniProt P10747 19-152); assay: ELISA, plate coated with CD28 1 ug/ml, detection with GAH-Fab-HRP, OD450; antibody concentration not shown on the sheet
T4 construct: Bought protein

ICOS = target: T5, ICOS (UniProt Q9Y6W8 21-140, limits assumed); assay: ELISA, plate coated with ICOS 1 ug/ml, detection with GAH-Fab-HRP, OD450; antibody concentration not shown on the sheet
T5 construct: Bought protein
T5 sequence (looked up): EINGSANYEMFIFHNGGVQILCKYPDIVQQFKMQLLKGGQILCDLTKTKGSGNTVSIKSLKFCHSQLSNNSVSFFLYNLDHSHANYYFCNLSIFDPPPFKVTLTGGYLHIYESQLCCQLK

CTLA4 = target: T6, CTLA4 (UniProt P16410 36-162); assay: ELISA, plate coated with CTLA4 1 ug/ml, detection with GAH-Fab-HRP, OD450; antibody concentration not shown on the sheet
T6 construct: Bought protein
T6 sequence (P16410 36-162 limits assumed): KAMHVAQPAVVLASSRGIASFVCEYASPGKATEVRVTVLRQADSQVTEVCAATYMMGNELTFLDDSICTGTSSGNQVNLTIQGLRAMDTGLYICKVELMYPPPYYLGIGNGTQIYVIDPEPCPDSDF

[5] = target: T1, hPD1-Fc (fusion protein of human PD-1 …); assay: competition ELISA, plate coated with hPD1-FC 1 µg/mL, competitor BMS01-Biotin 0.5 µg/mL, detection with HRP-avidin, OD450
Procedure: as §2

[6] = target: T1, hPD1-Fc (fusion protein of human PD-1 …); assay: SPR (BIACORE), antibody captured by anti-human IgG-Fab on the chip, hPD1-FC as mobile phase at 3.125-100 nM; the text's value is tenfold above Table 1
Procedure: as §1

B1: SG001 antibody (antibody, human IgG1, kappa, V domains shown)
VH: QVQLVESGGGVVQPGRSLRLTCKASGLTFSSSGMHWVRQAPGKGLEWVAVIWYDGSKRYYADSVKGRFTISRDNSKNTLFLQMNSLRAEDTAVYYCATNNDYWGQGTLVTVSS
VL: EIVLTQSPATLSLSPGERATLSCRASQSVSSYLAWYQQKPGQAPRLLIYTASNRATGIPARFSGSGSGTDFTLTISSLEPEDFAVYYCQQYSNWPRTFGQGTKVEIKR
EC50 (read off the curve) [1]: ~0.05 µg/mL | EC50 (read off the curve) [2]: ~0.03 µg/mL | EC50 (read off the curve) (monkey PD1): ~0.03 µg/mL | Kd [3]: 0.215 nM | koff [3]: 6.85e-05 s⁻¹ | kon [3]: 318000 M⁻¹ s⁻¹ | IC50 [4]: 1.47 µg/mL | binding result (BTLA): no binding | binding result (CD28): no binding | binding result (ICOS): no binding | binding result (CTLA4): no binding | IC50 (read off the curve) [5]: ~30 µg/mL | Kd [6]: 0.215 nM
